From patent US20220119789A1

Biological target: Trx-VL(NP)-GUS(IV-5)KW (Escherichia coli)
Test: cell-based or functional assay

average S/B ratio in 11 minutes after the beginning of reaction (GUS activity): 13
average S/B ratio in 20 minutes after the beginning of reaction (GUS activity): 42.3
Substance: PentaHis antibody (QIAGEN)
